# Test results from IntAct's records for PubMed 24165324.
# Target: gsk3b_human GSK3B (UniProt P49841)
# Sequence of UniProt P49841 (P49841 whole entry, looked up): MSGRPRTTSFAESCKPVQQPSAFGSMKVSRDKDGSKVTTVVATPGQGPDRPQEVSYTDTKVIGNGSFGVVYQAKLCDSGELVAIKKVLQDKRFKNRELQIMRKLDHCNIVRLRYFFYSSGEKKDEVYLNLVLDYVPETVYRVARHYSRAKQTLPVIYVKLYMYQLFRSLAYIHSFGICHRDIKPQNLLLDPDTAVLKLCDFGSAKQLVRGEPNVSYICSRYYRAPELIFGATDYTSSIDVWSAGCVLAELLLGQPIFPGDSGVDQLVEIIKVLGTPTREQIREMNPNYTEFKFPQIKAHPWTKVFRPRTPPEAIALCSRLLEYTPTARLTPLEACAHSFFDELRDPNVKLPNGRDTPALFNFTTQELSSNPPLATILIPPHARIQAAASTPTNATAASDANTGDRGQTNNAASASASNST
substance,measurement,value
"Leucine-rich repeat serine/threonine-protein kinase 2 (Homo sapiens), Q5S007 G2019S",effect of a mutation on the interaction,increasing interaction
